Data on one molecule can be found in publication PMC12343972 (Nature Communications, 2025).

The target in one data set is T1, Rad50-K1181A K1183A (Saccharomyces cerevisiae, UniProt P12753 1-1312, K1181A;K1183A).
T1 sequence: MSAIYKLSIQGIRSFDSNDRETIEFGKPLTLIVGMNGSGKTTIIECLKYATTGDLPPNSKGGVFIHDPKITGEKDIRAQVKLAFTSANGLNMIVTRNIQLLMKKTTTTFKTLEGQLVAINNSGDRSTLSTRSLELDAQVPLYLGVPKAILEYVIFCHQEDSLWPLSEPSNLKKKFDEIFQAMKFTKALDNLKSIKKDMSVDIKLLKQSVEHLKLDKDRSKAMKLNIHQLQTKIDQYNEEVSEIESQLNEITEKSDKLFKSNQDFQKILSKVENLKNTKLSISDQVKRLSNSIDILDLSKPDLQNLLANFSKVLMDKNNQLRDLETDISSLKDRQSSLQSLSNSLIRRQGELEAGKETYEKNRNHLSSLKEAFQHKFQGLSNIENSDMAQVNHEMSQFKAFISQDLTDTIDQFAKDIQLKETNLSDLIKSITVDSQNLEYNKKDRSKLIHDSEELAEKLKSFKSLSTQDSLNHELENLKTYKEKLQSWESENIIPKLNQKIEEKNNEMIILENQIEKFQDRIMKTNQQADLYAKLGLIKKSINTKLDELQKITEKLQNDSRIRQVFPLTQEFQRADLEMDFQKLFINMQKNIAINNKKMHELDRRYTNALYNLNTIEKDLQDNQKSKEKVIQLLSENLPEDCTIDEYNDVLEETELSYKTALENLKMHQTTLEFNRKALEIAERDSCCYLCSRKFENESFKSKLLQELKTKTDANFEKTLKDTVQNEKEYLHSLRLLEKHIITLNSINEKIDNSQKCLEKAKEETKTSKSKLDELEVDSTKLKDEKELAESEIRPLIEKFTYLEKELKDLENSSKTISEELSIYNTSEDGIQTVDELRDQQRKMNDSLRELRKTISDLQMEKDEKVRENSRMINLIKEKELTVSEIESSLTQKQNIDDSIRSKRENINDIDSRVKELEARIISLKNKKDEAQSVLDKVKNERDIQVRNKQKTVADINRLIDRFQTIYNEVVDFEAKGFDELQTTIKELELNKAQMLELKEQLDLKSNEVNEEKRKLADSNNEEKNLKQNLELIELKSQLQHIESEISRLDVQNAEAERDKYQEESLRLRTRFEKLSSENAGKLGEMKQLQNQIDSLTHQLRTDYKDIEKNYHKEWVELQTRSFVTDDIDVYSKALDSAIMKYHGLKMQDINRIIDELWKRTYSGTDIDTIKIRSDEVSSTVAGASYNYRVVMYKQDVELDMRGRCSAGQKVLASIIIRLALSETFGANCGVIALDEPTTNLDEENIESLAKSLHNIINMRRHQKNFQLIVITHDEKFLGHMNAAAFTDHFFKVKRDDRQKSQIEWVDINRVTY
As to the kind of experiment: EMSA. Background: In EMSA bound probe runs differently from free probe, usually more slowly.

The target in another data set is T2, Rad50 WT (Saccharomyces cerevisiae, UniProt P12753 1-1312).
T2 sequence: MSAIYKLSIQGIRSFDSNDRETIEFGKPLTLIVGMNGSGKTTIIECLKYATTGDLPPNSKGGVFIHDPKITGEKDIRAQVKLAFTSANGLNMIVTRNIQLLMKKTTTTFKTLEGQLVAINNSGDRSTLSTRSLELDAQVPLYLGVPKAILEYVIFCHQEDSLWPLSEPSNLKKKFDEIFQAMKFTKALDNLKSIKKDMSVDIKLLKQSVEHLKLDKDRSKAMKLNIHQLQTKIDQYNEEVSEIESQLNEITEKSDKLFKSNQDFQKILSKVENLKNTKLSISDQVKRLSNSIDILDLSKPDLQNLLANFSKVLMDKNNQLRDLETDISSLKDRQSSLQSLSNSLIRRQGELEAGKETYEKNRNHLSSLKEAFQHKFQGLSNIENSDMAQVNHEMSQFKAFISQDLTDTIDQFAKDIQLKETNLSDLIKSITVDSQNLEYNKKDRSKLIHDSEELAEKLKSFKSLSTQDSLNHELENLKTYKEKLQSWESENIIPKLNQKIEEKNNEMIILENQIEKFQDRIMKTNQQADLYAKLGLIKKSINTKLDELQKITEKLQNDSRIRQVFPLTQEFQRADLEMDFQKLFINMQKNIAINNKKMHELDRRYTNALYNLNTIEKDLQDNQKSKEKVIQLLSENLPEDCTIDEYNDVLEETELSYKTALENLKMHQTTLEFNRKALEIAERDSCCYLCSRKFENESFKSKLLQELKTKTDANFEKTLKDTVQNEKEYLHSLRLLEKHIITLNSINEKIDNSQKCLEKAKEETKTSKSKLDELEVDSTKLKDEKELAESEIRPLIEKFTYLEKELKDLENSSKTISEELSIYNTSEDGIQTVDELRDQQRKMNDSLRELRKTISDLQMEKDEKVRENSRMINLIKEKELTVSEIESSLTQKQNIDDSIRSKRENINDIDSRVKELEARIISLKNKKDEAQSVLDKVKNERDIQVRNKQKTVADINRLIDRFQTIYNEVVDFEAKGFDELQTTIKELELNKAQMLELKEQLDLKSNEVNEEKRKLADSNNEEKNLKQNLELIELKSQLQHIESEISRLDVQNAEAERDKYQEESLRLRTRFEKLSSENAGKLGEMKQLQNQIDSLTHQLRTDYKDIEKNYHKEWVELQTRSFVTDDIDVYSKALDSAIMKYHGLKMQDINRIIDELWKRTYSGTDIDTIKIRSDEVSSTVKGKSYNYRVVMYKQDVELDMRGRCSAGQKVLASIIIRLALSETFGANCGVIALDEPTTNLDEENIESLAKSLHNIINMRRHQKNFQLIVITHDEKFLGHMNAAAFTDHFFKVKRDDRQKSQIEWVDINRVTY
The experiment in a line: EMSA.

B1: 83-mer dsDNA (EMSA) (dsDNA)
DNA 1: TTGATAAGAGGTCATTTTTGCGGATGGCTTAGAGCTTAATTGCTGAATCTGGTGCTGTAGCTCAACATGTTTTAAATATGCAA
DNA 2: TTGCATATTTAAAACATGTTGAGCTACAGCACCAGATTCAGCAATTAAGCTCTAAGCCATCCGCAAAAATGACCTCTTATCAA
Take B1: the binding result with Rad50-K1181A K1183A and with Rad50 WT was “binds” in each case.
